Source: US12514938B2, “Fibroblast activation protein targeting peptides” (PERSPECTIVE THERAPEUTICS, INC., priority 2023, dated 2026)
pKi: −log10 of the molar value. *1 amine or outer side, *2 acyl side, *3 side chain or, on linkers, in order; H or OH if unused. Where a SMILES comes first, the peptide text is derived from it. Bridges are numbered along the chain shown (N, C = ends). The star is where a group is joined. X1 = NC(=O)CN1CCN(CC(=O)O)CCN(CC(=O)*)CCN(CC(=O)O)CC1; mXylylene = c1cc(C[*:1])cc(C[*:2])c1; oXylylene = c1ccc(C[*:2])c(C[*:1])c1; pXylylene = c1cc(C[*:2])ccc1C[*:1]; PEG2 = NCCOCCOCCC(=O)O

Tests used:
[1] = target: T1, Human Fibroblast Activation Protein (FAP) (Homo sapiens, UniProt Q12884); test: Enzyme inhibition assay against human FAP (substrate Z-GP-AMC), Example 1; type: biochemical; details: human FAP 5 ng/well, 50 μM Z-GP-AMC; Ki from IC50 by Cheng-Prusoff
T1 sequence (Q12884 1-760): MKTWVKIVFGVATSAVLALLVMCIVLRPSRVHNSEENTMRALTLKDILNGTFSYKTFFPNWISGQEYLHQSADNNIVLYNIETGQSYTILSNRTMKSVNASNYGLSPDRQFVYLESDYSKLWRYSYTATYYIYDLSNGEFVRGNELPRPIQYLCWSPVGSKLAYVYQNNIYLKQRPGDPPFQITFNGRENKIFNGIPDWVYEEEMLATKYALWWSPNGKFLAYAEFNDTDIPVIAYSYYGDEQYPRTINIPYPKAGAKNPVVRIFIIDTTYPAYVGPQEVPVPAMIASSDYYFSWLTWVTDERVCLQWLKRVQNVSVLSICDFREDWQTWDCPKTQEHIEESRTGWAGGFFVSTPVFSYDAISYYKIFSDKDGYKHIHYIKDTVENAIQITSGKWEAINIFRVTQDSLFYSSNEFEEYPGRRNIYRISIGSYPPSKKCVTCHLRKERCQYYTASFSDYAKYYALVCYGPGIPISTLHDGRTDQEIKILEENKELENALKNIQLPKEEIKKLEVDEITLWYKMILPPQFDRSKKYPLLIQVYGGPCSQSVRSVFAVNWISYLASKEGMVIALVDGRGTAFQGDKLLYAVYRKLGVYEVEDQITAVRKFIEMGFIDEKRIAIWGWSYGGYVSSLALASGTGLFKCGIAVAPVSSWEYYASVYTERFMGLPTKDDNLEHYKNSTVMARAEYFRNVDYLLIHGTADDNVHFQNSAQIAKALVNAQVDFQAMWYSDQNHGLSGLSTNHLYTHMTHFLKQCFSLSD
Outline: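 FAP (5 ng/well) preincubated 10 min at RT with peptide (10^−6 to 10^−12), then 50 μM Z-GP-AMC added for 1 h at RT, protected from light. Buffer 50 mM Tris-HCl, 1 M NaCl, 1 mg/mL BSA, pH 7.5; fluorescence at ex/em 360/460. IC50 from non-linear regression, converted to Ki via Cheng-Prusoff using known substrate Km.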

hFAP-HT1080 tumors = test: Radiotherapeutic efficacy in human fibrosarcoma xenograft model; type: in vivo, athymic nude mice; details: 4.5-5.4 MBq over three fractionated doses, weight recorded over 70 days
Description: In vivo efficacy was determined in a sarcoma model where hFAP is expressed on the membrane of cancer cell surface. HT1080 cells engineered to express hFAP. 8 days prior to treatment, athymic nude mice were inoculated with approximately 2 million cells. The mice were then randomized by tumor size and divided into two groups for control and treatment. The treated group was treated with 4.5-5.4 MBq [^212Pb]-Pb-VMT-FAP-2-59 over three fractionated doses approximately 2 weeks apart. Two mice were treated a fourth time, at day 48 and day 53 with an additional 1.9-2.1MBq. Tumor volume was measured via caliper, and weight recorded over 70 days. […] Efficacy of VMT-FAP-2-59 in athymic nude mice bearing HT1080-FAP tumors. Tumor volume and weight was monitored over 70 days. The treatment group was given 4.5-5.4MBq ^212Pb-VMT-FAP-2-59 over 3 fractionated doses. Two mice with tumor recurrence were given an additional 1.9-2.1 MBq, as indicated by dashed arrows.

Row | Molecule | pKi [1] | Treatment-related toxicity (hFAP-HT1080 tumors)
1 | C[C@@H](O)[C@@H]1NC(=O)[C@@H](NC(=O)CCOCCOCCNC(=O)CN2CCN(CC(=O)O)CCN(CC(N)=O)CCN(CC(=O)O)CC2)CSCc2ccccc2CSC[C@@H](C(N)=O)NC(=O)[C@H](Cc2c[nH]c3ccccc23)NC(=O)[C@H](Cc2c[nH]c3ccccc23)NC(=O)[C@H](CCC(N)=O)NC(=O)[C@H](CCC(=O)O)NC(=O)[C@H](Cc2c[nH]c3ccccc23)NC(=O)[C@@H]2CCCN2C1=O [[^212Pb]VMT-FAP-2-59, metal not drawn] ({X1-PEG2}-CTPWEQWWC-NH2; linker 1-9 via oXylylene) |  | No treatment-related toxicity was observed
2 | NODA-PEG2-[C(oXdB)TPWEQWWC]-NH2 [VMT-FAP-2-77] | 8.34 | 
3 | PSC-Bn-NCS-PEG1-[C(oXdB)TPWEQWWC]-NH2 [VMT-FAP-2-72] | 9.10 | 
4 | PSC-Bn-NCS-PEG2-[C(oXdB)TPWEQWWC]-NH2 [VMT-FAP-2-73] | 8.44 | 

Second part, led by results:

Row | pKi [1] | Molecule | Treatment-related toxicity (hFAP-HT1080 tumors)
5 | 8.57 | C[C@@H](O)[C@@H]1NC(=O)[C@@H](NC(=O)CCOCCOCCNC(=O)CN2CCN(CC(=O)O)CCN(CC(N)=O)CCN(CC(=O)O)CC2)CSCc2ccc(cc2)CSC[C@@H](C(N)=O)NC(=O)[C@H](Cc2c[nH]c3ccccc23)NC(=O)[C@H](Cc2c[nH]c3ccccc23)NC(=O)[C@H](CCC(N)=O)NC(=O)[C@H](CCC(=O)O)NC(=O)[C@H](Cc2c[nH]c3ccccc23)NC(=O)[C@@H]2CCCN2C1=O [VMT-FAP-2-82, PSC-PEG2-[C(pXdB)TPWEQWWC]-NH2] ({X1-PEG2}-CTPWEQWWC-NH2; linker 1-9 via pXylylene) | 
6 | 9.27 | C[C@@H](O)[C@@H]1NC(=O)[C@@H](NC(=O)CCOCCOCCNC(=O)CN2CCN(CC(=O)O)CCN(CC(N)=O)CCN(CC(=O)O)CC2)CSCc2cccc(c2)CSC[C@@H](C(N)=O)NC(=O)[C@H](Cc2c[nH]c3ccccc23)NC(=O)[C@H](Cc2c[nH]c3ccccc23)NC(=O)[C@H](CCC(N)=O)NC(=O)[C@H](CCC(=O)O)NC(=O)[C@H](Cc2c[nH]c3ccccc23)NC(=O)[C@@H]2CCCN2C1=O [VMT-FAP-2-83, PSC-PEG2-[C(mXdB)TPWEQWWC]-NH2] ({X1-PEG2}-CTPWEQWWC-NH2; linker 1-9 via mXylylene) | 
7 | 6.94 | C[C@@H](O)[C@@H]1NC(=O)[C@@H]2CCCN2C(=O)[C@H](Cc2c[nH]c3ccccc23)NC(=O)[C@H](CCC(=O)O)NC(=O)[C@H](CCC(N)=O)NC(=O)[C@H](Cc2c[nH]c3ccccc23)NC(=O)[C@H](Cc2c[nH]c3ccccc23)NC(=O)[C@@H](NC(=O)CCOCCOCCNC(=O)CN2CCN(CC(=O)O)CCN(CC(N)=O)CCN(CC(=O)O)CC2)CSCc2ccccc2CSC[C@@H](C(=O)N[C@@H](CO)C(N)=O)NC1=O [VMT-FAP-2-84, PSC-PEG2-[C(oXdB)WWQEWPTC]S-NH2] ({X1-PEG2}-CWWQEWPTCS-NH2; linker 1-9 via oXylylene) | 
